The results in this text go back to patent US20210371524A1 (VOR BIOPHARMA, published 2021).

Positions count from the first letter of the chain named.

The target in assay [1] is human CD45 on human cells (PBMC, CD34+CD90+ bone marrow HSCs, cells expressing CD45) (human), P08575. Put plainly: cell-based or functional assay.
The target of assay [2] is T1, Human CD45RABC Antigen (Fragment of Human CD45RABC Isoform) (human, UniProt P08575 26-577).
T1 sequence: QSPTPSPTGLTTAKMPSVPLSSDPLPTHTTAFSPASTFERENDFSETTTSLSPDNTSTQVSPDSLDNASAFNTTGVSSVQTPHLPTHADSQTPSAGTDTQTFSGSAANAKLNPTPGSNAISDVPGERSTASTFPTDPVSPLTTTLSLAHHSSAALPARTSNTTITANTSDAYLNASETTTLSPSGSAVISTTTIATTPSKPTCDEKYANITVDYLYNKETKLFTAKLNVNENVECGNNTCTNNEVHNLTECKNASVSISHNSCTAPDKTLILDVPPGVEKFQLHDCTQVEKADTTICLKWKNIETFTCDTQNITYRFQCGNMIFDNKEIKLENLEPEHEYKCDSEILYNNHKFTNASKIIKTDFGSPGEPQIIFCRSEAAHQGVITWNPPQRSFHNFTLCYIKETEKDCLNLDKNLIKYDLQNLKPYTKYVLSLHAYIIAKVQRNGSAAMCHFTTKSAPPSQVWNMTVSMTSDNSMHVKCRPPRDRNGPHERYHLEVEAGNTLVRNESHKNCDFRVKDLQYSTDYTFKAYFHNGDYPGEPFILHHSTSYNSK
Description: Octet (BLI), monovalent binding. (In BLI a coated tip is dipped into the sample, and binding shifts an interference pattern.)

Assay [3] has as its target T2, cynomolgus CD45 RABC (cynomolgus, UniProt A0A2K5VQ76 26-1301).
T2 construct: also called cyno CD45RABC; cyno RABC
T2 sequence: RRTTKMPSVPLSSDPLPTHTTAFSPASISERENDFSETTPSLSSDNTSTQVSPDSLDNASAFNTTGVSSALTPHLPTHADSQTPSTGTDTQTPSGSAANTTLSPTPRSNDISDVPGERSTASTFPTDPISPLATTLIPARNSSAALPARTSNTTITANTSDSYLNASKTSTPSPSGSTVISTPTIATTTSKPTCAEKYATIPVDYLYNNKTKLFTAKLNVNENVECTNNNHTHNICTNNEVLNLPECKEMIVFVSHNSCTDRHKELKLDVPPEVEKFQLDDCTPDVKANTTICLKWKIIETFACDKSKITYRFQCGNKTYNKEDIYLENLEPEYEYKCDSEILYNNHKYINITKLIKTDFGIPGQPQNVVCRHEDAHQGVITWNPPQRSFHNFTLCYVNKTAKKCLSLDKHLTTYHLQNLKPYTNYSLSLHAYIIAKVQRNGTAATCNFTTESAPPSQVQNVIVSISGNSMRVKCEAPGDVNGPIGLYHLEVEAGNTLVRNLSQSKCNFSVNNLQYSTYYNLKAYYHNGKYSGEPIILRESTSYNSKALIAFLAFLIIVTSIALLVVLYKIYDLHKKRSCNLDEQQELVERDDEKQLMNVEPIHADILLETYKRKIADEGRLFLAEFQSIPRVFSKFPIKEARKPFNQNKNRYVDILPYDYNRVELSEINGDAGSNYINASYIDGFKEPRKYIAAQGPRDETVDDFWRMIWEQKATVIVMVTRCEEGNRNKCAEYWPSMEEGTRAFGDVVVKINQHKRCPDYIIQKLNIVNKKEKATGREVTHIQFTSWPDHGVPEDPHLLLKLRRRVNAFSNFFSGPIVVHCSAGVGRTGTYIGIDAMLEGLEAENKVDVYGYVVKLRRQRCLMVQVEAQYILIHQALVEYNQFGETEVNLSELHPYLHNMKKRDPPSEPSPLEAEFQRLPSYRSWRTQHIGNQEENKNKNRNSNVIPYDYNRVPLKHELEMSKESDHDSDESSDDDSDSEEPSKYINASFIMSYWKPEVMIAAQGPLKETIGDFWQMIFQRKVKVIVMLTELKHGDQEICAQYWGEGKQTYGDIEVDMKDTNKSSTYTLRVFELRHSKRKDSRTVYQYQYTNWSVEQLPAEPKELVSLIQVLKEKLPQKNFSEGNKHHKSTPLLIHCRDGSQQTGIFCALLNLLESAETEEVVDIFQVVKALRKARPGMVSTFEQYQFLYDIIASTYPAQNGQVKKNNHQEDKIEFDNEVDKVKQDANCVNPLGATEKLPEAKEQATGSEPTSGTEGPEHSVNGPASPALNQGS
Put plainly: Octet (BLI), monovalent binding.

Assay [4] deals with T3, Rhesus CD45RABC (rhesus, UniProt A0A1D5R142 26-1310).
T3 sequence: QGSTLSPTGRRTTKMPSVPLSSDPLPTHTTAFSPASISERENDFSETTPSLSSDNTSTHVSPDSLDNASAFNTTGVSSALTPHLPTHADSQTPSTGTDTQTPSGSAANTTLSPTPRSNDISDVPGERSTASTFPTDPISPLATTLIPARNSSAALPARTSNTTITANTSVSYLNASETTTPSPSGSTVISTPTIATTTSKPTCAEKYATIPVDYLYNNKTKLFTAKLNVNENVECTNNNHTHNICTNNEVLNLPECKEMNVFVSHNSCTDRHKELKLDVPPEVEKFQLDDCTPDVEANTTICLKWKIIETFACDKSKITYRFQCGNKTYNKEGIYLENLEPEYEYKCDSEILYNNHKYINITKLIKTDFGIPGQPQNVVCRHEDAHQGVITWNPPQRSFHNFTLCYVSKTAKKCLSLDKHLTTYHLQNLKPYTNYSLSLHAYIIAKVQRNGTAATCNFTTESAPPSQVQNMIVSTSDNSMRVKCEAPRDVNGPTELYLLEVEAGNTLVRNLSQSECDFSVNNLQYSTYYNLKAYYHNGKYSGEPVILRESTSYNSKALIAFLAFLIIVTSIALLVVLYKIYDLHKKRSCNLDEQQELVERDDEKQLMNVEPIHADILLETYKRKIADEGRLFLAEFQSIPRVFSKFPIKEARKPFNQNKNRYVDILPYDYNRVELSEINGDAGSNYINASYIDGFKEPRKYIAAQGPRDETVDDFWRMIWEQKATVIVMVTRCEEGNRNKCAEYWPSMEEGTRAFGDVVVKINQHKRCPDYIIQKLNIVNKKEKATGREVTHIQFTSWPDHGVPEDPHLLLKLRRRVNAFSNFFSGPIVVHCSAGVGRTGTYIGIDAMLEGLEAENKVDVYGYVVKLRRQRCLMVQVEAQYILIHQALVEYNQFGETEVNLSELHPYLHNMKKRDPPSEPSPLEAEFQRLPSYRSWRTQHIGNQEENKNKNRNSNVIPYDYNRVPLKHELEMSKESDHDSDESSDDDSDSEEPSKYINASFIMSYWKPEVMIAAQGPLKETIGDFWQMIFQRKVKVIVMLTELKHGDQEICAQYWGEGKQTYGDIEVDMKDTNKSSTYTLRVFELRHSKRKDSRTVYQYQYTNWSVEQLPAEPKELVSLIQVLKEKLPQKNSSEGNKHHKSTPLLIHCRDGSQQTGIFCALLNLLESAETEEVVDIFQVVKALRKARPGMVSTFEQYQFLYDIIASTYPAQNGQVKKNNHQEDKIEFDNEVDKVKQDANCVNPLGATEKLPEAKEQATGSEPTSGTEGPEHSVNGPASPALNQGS
Put plainly: Octet (BLI), monovalent binding.

The target in assay [5] is T2, cynomolgus CD45 RABC. Description: Octet (BLI), monovalent binding; KD on cyno against KD on human CD45 RABC.
Assay [6] deals with T3, Rhesus CD45RABC. Put plainly: Octet (BLI), monovalent binding; KD on rhesus against KD on human CD45 RABC.

B1: CD45-AM (chimeric AbA as IgG1 conjugated to amatoxin), Example 2 (antibody, V domains shown)
VH: EVQLVESGGDRVQPGRSLTLSCVTSGFTFNNYWMTWIRQVPGKGLEWVASISSSGGSIYYPDSVKGRFTISRDNAKNTLYLQMNSLRSEDTATYYCARDERWAGAMDAWGQGTSVTVSS
VL: DIQMTQSPPVLSASVGDRVTLSCKASQNINKNLDWYQQKHGEAPKLLIYETNNLQTGIPSRFSGSGSGTDYTLTISSLQPEDVATYYCYQHNSRFTFGSGTKLEIK
modifications: here or on the partner: amatoxin (AM) payload conjugated to the antibody; site and drug to antibody ratio not stated in Example 2
For the molecule B1, in assay [1], the in vitro killing of PBMC immune cells (IC50) worked out at 0.055 nM and the in vitro killing of primary human bone marrow CD34+CD90+ HSCs (IC50) was found to be 0.067 nM.

B2: AbA chimera (chimeric Antibody A, human IgG1) (antibody, V domains shown)
VH: B1 VH
VL: B1 VL
notes: also called chimeric AbA
In the case of B2, the Kd in assay [2] was determined as 2.34 nM; with cynomolgus CD45 RABC [3], 9.33 nM; with Rhesus CD45RABC [4] it was 12.3 nM. The “Fold cyno to Hu” value in the assay with cynomolgus CD45 RABC [5] came out at 4 fold. Also, in the assay with Rhesus CD45RABC [6], the “Fold Rhesus to Hu” value came to 5 fold.

B3: CD45-AM (antibody AbB-amatoxin), Example 4 (antibody, V domains shown)
VH: EVQLVESGGDLVQPGRSLKLSCIASGFTFTNFWMTWIRQVSGKGLEWVASISSSGGSIYYPDSVKDRFTISRDNAKNTLYLQMNSLRSEDTATYYCVKLHYYSGGGDAWGQGTSVTVSS
VL: DIQMTQSPSFLSASVGDRVTINCKASQNINKYLDWYQQKHGEAPKLLIHYTNNLHTGIPSRFSGSGSGTDYTLTISSLQPEDVATYFCLQHSSRWTFGGGTKLELK
modifications: here or on the partner: amanitin conjugated (interchain), drug to antibody ratio (DAR) 4
In assay [1], B3 came in with an in vitro killing of human PBMCs, 4 days, Celltiter Glo of 614 pM and an in vitro killing of primary human CD34+CD90+ HSCs, 5 days, flow cytometry counts of 68 pM.

B4: AbB chimera (chimeric Antibody B, human IgG1) (antibody, V domains shown)
VH: B3 VH
VL: B3 VL
notes: also called chimeric AbB
B4: the Kd was determined as 2.84 nM in assay [2], 14.5 nM with cynomolgus CD45 RABC [3] and 15.8 nM with Rhesus CD45RABC [4]. Moreover, in the assay with cynomolgus CD45 RABC [5], the “Fold cyno to Hu” value is 5 fold. Moreover, the “Fold Rhesus to Hu” value with Rhesus CD45RABC [6] came out at 6 fold.

B5: AbC chimera (chimeric Antibody C, human IgG1) (antibody, V domains shown)
VH: B3 VH with I23V, T30N, F32Y, S41P, Y80F, V97A, K98R, H100Y
VL: B3 VL with N22I, N28D, H40L, H49Y, Y50N, S92I
notes: also called chimeric AbC
For B5, the Kd in assay [2] amounted to 7.54 nM; with cynomolgus CD45 RABC [3], 62.2 nM; with Rhesus CD45RABC [4], 63.5 nM. Also, the “Fold cyno to Hu” value with cynomolgus CD45 RABC [5] turned out to be 8 fold. Also, in the assay with Rhesus CD45RABC [6], the “Fold Rhesus to Hu” value was 8 fold.

A word on the Kd: it is the free concentration of one partner at which half of the binding sites on the other are occupied at equilibrium, for simple one-to-one binding.
